The values that follow come from patent CN114516919A (SUZHOU BAIDAI MEDICAL SCIENCE AND TECH LIMITED COMPANY, dated 2022).

This assay addresses T1, 肾组织切片中的PLA2R1蛋白 (human, UniProt Q13018 21-1463).
T1 construct: whole, on cells
The assay is described as follows: immunohistochemistry on FFPE kidney tissue sections, DAB.

T1 sequence (Q13018 21-1463): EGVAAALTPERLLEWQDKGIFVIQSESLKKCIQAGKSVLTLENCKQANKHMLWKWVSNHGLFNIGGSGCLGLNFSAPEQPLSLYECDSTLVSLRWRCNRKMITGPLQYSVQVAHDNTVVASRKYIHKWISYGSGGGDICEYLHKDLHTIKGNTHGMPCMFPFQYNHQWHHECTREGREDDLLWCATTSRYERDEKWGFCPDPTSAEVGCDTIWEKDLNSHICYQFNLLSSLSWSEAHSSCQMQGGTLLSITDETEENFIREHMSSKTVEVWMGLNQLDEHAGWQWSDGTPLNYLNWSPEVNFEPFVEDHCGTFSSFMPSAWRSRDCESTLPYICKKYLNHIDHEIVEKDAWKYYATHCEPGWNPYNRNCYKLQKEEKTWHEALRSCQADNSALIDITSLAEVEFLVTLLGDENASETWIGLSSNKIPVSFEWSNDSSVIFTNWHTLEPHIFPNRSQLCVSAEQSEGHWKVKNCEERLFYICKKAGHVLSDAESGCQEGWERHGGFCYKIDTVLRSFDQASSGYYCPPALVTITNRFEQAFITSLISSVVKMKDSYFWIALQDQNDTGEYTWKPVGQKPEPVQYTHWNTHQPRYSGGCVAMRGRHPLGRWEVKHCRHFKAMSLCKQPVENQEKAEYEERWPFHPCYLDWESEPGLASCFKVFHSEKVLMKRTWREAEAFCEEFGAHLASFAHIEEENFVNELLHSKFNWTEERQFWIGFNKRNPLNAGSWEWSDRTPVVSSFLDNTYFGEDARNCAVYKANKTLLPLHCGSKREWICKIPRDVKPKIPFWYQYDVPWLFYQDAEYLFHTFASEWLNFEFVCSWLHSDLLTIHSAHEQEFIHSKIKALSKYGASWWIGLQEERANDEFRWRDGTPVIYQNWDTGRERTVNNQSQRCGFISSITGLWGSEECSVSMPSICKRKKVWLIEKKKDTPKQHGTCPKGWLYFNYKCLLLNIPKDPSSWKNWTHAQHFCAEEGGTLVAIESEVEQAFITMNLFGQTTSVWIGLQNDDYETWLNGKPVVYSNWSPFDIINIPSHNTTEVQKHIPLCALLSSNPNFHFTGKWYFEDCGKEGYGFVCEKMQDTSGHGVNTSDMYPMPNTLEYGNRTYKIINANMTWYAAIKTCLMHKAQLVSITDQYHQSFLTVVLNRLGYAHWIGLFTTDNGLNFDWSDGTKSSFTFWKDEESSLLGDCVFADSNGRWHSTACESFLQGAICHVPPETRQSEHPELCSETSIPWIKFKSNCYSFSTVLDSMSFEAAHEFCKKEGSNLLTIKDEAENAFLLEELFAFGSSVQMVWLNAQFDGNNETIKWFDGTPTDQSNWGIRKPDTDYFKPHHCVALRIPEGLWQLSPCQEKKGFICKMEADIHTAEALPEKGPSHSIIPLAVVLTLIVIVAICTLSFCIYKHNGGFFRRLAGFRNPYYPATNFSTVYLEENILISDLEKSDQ

B1: 54D11抗PLA2R重组兔单克隆抗体 (antibody, V domains shown)
VH: QSVEESGGRLVTPGTPLTLTCTVSGIDLSSHGMGWVRQAPGKGLEWIGYINTGGSAYYASWAKGRFTISRTSTTVDLKMTSLTTEDTATYFCARGDPDYTSGFPIWGPGTLVTVSS
VL: AFEMTQTPASVEVAVGGTVTIKCQASESISSWLAWYQQKPGQPPKLLIYRASTLASGVPSRFSGSGSGTQFTLTISGVECADAATYYCQQGYSSHNIDNIFGGGTEVVVR
notes: also called 54D11抗PLA2R单克隆抗体; 54D11克隆的PLA2R重组兔单克隆抗体
B1: the binding result is “binds”.
